Source: the supplement of paper PMC9732359
± gives the uncertainty stated by the source.

Assay: protein stability index of a GFP-peptide fusion (yeast GPS) (PSI 1-4); higher = more stable; sorted into four equal gates, so the index is relative within each strain
In short: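 Sequencing reads from sorted gates were used to score each peptide. The library consisted of tiled 17-residue yeast protein peptides fused downstream of GFP on a Cherry-expressing plasmid, pooled and carried in yeast. Mid-log cultures in leucine-free medium were split into four equal gates by GFP/Cherry ratio, and each gate's plasmids were PCR-amplified and Illumina-sequenced. The protein stability index adds up, over all gates, the read frequency multiplied by the gate number.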

Sequence	protein stability index (doa10∆)	protein stability index (pdr5∆)	protein stability index (san1∆)	protein stability index (ubr1∆)
SLRRIRDEMSKAELPQW [MED8]	1.98 ± 0.071	2.36 ± 0.055	2.33 ± 0.072	1.92 ± 0.04
SSIVAIDWASPEYGRII [YGL100W/SEH1]	2.57 ± 0.13	3.16 ± 0.13	2.82 ± 0.079	2.69 ± 0.061
STGAADGGYNAQLAKAK [SMC2]	3.31 ± 0.15	3.47 ± 0.11	3.22 ± 0.084	3.3 ± 0.13
MSDFVPIDAGLNEAPFP [MCD1]	3 ± 0.07	2.56 ± 0.05	2.92 ± 0.051	2.97 ± 0.047
MSEEQDPLLAGLGETSG [RPT4]	2.91 ± 0.24	3.55 ± 0.17	3.57 ± 0.17	3.25 ± 0.15
LIEILRLRALQLYFQKN [RRI2]	1.17 ± 0.049	1.28 ± 0.072	1.26 ± 0.12	1.04 ± 0.076
VNEIMYKCTAAMEKYLL [MTW1]	2.19 ± 0.046	2.44 ± 0.06	2.4 ± 0.07	2.29 ± 0.056
TAFALGIACAGKGLQSA [RPN2]	1.25 ± 0.086	1.33 ± 0.11	1.3 ± 0.17	1.19 ± 0.076
LKKQLHVSHEAMREVND [YIL149C/MLP2]	2.77 ± 0.066	2.24 ± 0.058	2.91 ± 0.07	2.85 ± 0.076
ETQEIKENDTVMNTKLL [ESC2]	2.85 ± 0.086	3 ± 0.063	2.88 ± 0.1	3.18 ± 0.055
RTLLTEEIEPKLEKLRN [SMC2]	3.02 ± 0.074	3 ± 0.068	3.18 ± 0.042	3.21 ± 0.054
STKTGTPSDLSESGSKL [POP1]	3.4 ± 0.1	3.35 ± 0.088	3.24 ± 0.055	3.35 ± 0.048
NAVTAAAANNNIKPVEQ [GAL11]	2.66 ± 0.064	2.66 ± 0.051	2.77 ± 0.062	2.84 ± 0.039
NVTETYSVYLIHEIRLN [SIR3]	2.59 ± 0.23	1.98 ± 0.099	2.42 ± 0.14	2.37 ± 0.066
KNRRRIHGELKTYKEGI [SMC1]	3.23 ± 0.13	3.35 ± 0.062	3.17 ± 0.095	3.18 ± 0.054
KMYSDDTLKDISTSFCF [BRN1]	3.36 ± 0.086	3.33 ± 0.067	3.42 ± 0.039	3.22 ± 0.067
LKEPVEDIIKRTSPIDN [NUT2]	2.97 ± 0.083	3.09 ± 0.1	2.64 ± 0.1	3.2 ± 0.061
TSDSESTLYKYLKESKR [SWI3]	3.11 ± 0.084	2.66 ± 0.11	2.89 ± 0.12	2.74 ± 0.054
IYRVRVRRGNRKRPVPK [RPL15A]	–	2.86 ± 0.2	–	3.2 ± 0.14
APLAKVVFRDPYKYRLR [RPL2A]	2.93 ± 0.098	3.16 ± 0.1	3.07 ± 0.06	3.13 ± 0.062

Sequence	protein stability index (doa10∆)	protein stability index (pdr5∆)	protein stability index (san1∆)	protein stability index (ubr1∆)
FTLWWSPTINRANVYVG [PRP8]	1.99 ± 0.089	1.88 ± 0.07	1.61 ± 0.15	2.04 ± 0.051
SVLKDSDDKTRQLSPHT [PRE1]	2.56 ± 0.088	2.72 ± 0.11	2.43 ± 0.099	2.52 ± 0.067
PQQQQQHLQFNGSSDAS [YDL088C/ASM4]	2.41 ± 0.042	2.22 ± 0.048	2.04 ± 0.066	2.27 ± 0.03
AKSMAFLKEVLSDLSSP [YML103C/NUP188]	2.97 ± 0.079	3.1 ± 0.079	2.79 ± 0.11	2.95 ± 0.065
TPSFSFGAKSDENKAGA [YJL041W/NSP1]	3.51 ± 0.28	3.19 ± 0.16	3.17 ± 0.15	–
IKVPTYIRKLISSGLLY [SRB8]	1.38 ± 0.048	1.27 ± 0.07	1.38 ± 0.085	1.2 ± 0.067
EGLNQRNQVQTENVAQA [YGR119C/NUP57]	2.96 ± 0.12	2.89 ± 0.16	2.77 ± 0.095	2.65 ± 0.06
RAKSCGVDAMSVDDLKK [RPL1A]	2.54 ± 0.078	2.41 ± 0.078	2.69 ± 0.075	2.48 ± 0.05
DAVKDFKLGKFNYVAVG [QCR2]	3.2 ± 0.24	1.52 ± 0.14	–	–
ALEEAKLSDNISICMIL [YDL116W/NUP84]	2.87 ± 0.076	3.02 ± 0.073	3.04 ± 0.06	3.21 ± 0.043
VKVQPEGKYIVDVAKDI [RPT6]	3.35 ± 0.12	3.14 ± 0.17	3.29 ± 0.038	3.16 ± 0.11
KKQKLIEEQDKKVQALQ [ITC1]	3.06 ± 0.094	2.6 ± 0.079	2.61 ± 0.087	2.82 ± 0.068
TIFSVMVEWLESRSFSP [PRP8]	2.13 ± 0.077	1.99 ± 0.094	2.15 ± 0.15	1.88 ± 0.059
VMFATNRPNTLDPALLR [RPT1]	2.81 ± 0.075	3.05 ± 0.079	2.9 ± 0.062	2.91 ± 0.073
LNAKYQSLGLDDLQKFN [ISW2]	3.03 ± 0.066	3 ± 0.061	2.74 ± 0.049	2.7 ± 0.044
LNWFRTTNMNVNNCIWA [RGR1]	2.22 ± 0.057	1.34 ± 0.045	1.15 ± 0.12	1.28 ± 0.036
SGGEREIQRTMLELLNQ [RPT2]	3.46 ± 0.15	3.74 ± 0.2	–	3.15 ± 0.18
DNKEKDFELEISWCSLS [PRE10]	3.54 ± 0.12	3.13 ± 0.14	2.87 ± 0.13	3.13 ± 0.088
KRRKTHIHKHVKDEAFD [RET1]	2.87 ± 0.11	3.23 ± 0.12	2.92 ± 0.095	3.1 ± 0.1
PSTNAQNVNVPSAFNFT [YOR098C/NUP1]	2.6 ± 0.046	2.73 ± 0.054	2.67 ± 0.041	2.75 ± 0.045
